Reference: publication doi:10.1101/2021.11.30.470528

Molecular target: GST affinity tag
Assay: SEC

Chain of GST affinity tag (P08515 2-218): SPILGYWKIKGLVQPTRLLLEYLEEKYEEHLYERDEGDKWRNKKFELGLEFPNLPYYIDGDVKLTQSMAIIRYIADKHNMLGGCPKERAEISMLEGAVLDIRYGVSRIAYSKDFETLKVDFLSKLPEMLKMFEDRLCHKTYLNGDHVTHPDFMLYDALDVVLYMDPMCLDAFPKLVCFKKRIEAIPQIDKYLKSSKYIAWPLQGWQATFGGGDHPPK

GST affinity tag
stoichiometry N: 2
